# Laboratory results: US12383631B2, “Immune antigen specific IL-18 immunocytokines and uses thereof” (Bright Peak Therapeutics AG, priority 2022, dated 2025)
# T1: human IL-18 binding protein isoform a (IL-18BPa) (Homo sapiens, UniProt O95998)
# T1 sequence (O95998 31-194): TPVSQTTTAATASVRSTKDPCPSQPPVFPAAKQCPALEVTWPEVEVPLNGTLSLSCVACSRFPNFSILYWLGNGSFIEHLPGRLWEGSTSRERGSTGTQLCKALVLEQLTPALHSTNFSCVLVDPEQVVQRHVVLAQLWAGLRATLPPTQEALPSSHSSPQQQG
# T2: human IL-18BP (Homo sapiens, UniProt O95998)
# T2 sequence (O95998 31-194): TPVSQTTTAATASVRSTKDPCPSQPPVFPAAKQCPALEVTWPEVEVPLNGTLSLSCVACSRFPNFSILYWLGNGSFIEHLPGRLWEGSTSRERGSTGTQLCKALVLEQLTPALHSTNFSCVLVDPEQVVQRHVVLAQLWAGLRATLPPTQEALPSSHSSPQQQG
# Molecular target: T1, human IL-18 binding protein isoform a (IL-18BPa)
# Assay: IL-18 Binding Protein inhibition cellular assay in NK-92 cells (Example 4 / 17C)
# Assay type: cell-based
# Conditions: inhibition by IL-18BP of IFNγ stimulation in NK92 cells
# Experimental: The NK cell line NK-92 derived from a patient with lymphoma (ATCC® CRL-2407™) is cultured in aMEM medium supplemented with 20% FCS-Glutamax, 25 μM β-mercaptoethanol, and 100 IU/mL of recombinant human IL-2.
# On the day of experiment, cells are harvested and washed with aMEM medium without IL-2 and containing 1 ng/mL of recombinant human IL-12. After counting, the cells are seeded at 100,000 cells/well in a 384 well titer plate and incubated at 37° C./5% CO2. Sixteen 2-fold serial dilutions of Fc-fused human IL-18 binding protein isoform a (IL-18BPa) are prepared in aMEM medium. 1 ng/mL of IL-12 containing 2 nM of each modified IL-18 polypeptide variant is added to the NK-92 cells. The final IL-18 analyte concentration is 1 nM, and the final IL-18BPa concentration ranged from 566 nM to 17 pM.
# After incubating the cells for 16-20 hr at 37° C./5% CO2, 5 μL of the supernatant is carefully transferred to a 384 microwell OptiPlate. IFNγ levels are measured using a human IFNγ AlphaLISA Assay Kit. Briefly, 10 μL of 2.5× AlphaLISA anti-IFNγ acceptor beads and biotinylated antibody anti-IFNγ mix are added to 5 μL of NK-92 supernatants. The mixtures are incubated for 1 hr at room temperature with shaking. Under subdued light, 2.5 μL of 2×SA donor beads are pipetted in each well and incubated for 30 min at room temperature with shaking. AlphaLISA signals are then measured on an EnSpire™ plate reader using 680 nm and 615 nm as excitation and emission wavelengths, respectively. Half maximal inhibitory concentrations (IC50) are calculated based on a variable slope and four parameter analysis using GraphPad PRISM software.
# 17C—IFNγ Stimulation and IL-18BP Inhibition Assay—The experiments described in Example 4 for determination of IFNg stimulation in NK92 cells (and inhibition by IL-18 BP) were performed substantially as described on modified IL-18 polypeptides in order to assess their activities and their suitability for incorporation into immunocytokine compositions.
row,IC50,Molecule
1,0.44 nM,"C166: IL-18 polypeptide: V11I, C38A, S55T, C76A, C127A (protein) YFGKLESKLSIIRNLNDQVLFIDQGNRPLFEDMTDSDARDNAPRTIFIISMYKDTQPRGMAVTISVKCEKISTLSAENKIISFKEMNPPDNIKDTKSDIIFFQRSVPGHDNKMQFESSSYEGYFLAAEKERDLFKLILKKEDELGDRSIMFTVQNED"
2,0.176 nM,"C168: IL-18 polypeptide: V11I, C38A, C76A, S105K, C127A (protein) YFGKLESKLSIIRNLNDQVLFIDQGNRPLFEDMTDSDARDNAPRTIFIISMYKDSQPRGMAVTISVKCEKISTLSAENKIISFKEMNPPDNIKDTKSDIIFFQRKVPGHDNKMQFESSSYEGYFLAAEKERDLFKLILKKEDELGDRSIMFTVQNED"
3,0.809 nM,"C167: IL-18 polypeptide: V11I, C38A, C76A, S105I, C127A (protein) YFGKLESKLSIIRNLNDQVLFIDQGNRPLFEDMTDSDARDNAPRTIFIISMYKDSQPRGMAVTISVKCEKISTLSAENKIISFKEMNPPDNIKDTKSDIIFFQRIVPGHDNKMQFESSSYEGYFLAAEKERDLFKLILKKEDELGDRSIMFTVQNED"

# Further lines, the molecule ahead of its results:
row,Molecule,IC50
1,"C159: IL-18 polypeptide: V11I, C38A, K53A, C76A, H109A, C127A (protein) YFGKLESKLSIIRNLNDQVLFIDQGNRPLFEDMTDSDARDNAPRTIFIISMYADSQPRGMAVTISVKCEKISTLSAENKIISFKEMNPPDNIKDTKSDIIFFQRSVPGADNKMQFESSSYEGYFLAAEKERDLFKLILKKEDELGDRSIMFTVQNED",1.81 nM
2,"C165: IL-18 polypeptide: V11I, C38A, S55R, C76A, C127A (protein) YFGKLESKLSIIRNLNDQVLFIDQGNRPLFEDMTDSDARDNAPRTIFIISMYKDRQPRGMAVTISVKCEKISTLSAENKIISFKEMNPPDNIKDTKSDIIFFQRSVPGHDNKMQFESSSYEGYFLAAEKERDLFKLILKKEDELGDRSIMFTVQNED",0.885 nM
3,"C163: IL-18 polypeptide: V11I, C38A, C76A, Q103K, C127A (protein) YFGKLESKLSIIRNLNDQVLFIDQGNRPLFEDMTDSDARDNAPRTIFIISMYKDSQPRGMAVTISVKCEKISTLSAENKIISFKEMNPPDNIKDTKSDIIFFKRSVPGHDNKMQFESSSYEGYFLAAEKERDLFKLILKKEDELGDRSIMFTVQNED",0.823 nM
4,"C162: IL-18 polypeptide: K8E, V11I, C38A, C76A, Q103R, C127A (protein) YFGKLESELSIIRNLNDQVLFIDQGNRPLFEDMTDSDARDNAPRTIFIISMYKDSQPRGMAVTISVKCEKISTLSAENKIISFKEMNPPDNIKDTKSDIIFFRRSVPGHDNKMQFESSSYEGYFLAAEKERDLFKLILKKEDELGDRSIMFTVQNED",7.29 nM
5,"C164: IL-18 polypeptide: V11I, C38A, S55H, C76A, C127A (protein) YFGKLESKLSIIRNLNDQVLFIDQGNRPLFEDMTDSDARDNAPRTIFIISMYKDHQPRGMAVTISVKCEKISTLSAENKIISFKEMNPPDNIKDTKSDIIFFQRSVPGHDNKMQFESSSYEGYFLAAEKERDLFKLILKKEDELGDRSIMFTVQNED",0.456 nM
6,"C161: IL-18 polypeptide: K8R, V11I, C38A, C76A, Q103E, C127A (protein) YFGKLESRLSIIRNLNDQVLFIDQGNRPLFEDMTDSDARDNAPRTIFIISMYKDSQPRGMAVTISVKCEKISTLSAENKIISFKEMNPPDNIKDTKSDIIFFERSVPGHDNKMQFESSSYEGYFLAAEKERDLFKLILKKEDELGDRSIMFTVQNED",1.07 nM
7,"C160: IL-18 polypeptide: V11I, C38A, K53A, C76A, D110A, C127A (protein) YFGKLESKLSIIRNLNDQVLFIDQGNRPLFEDMTDSDARDNAPRTIFIISMYADSQPRGMAVTISVKCEKISTLSAENKIISFKEMNPPDNIKDTKSDIIFFQRSVPGHANKMQFESSSYEGYFLAAEKERDLFKLILKKEDELGDRSIMFTVQNED",3.18 nM
8,"C158: IL-18 polypeptide: V11I, C38A, K53A, C76A, G108A, C127A (protein) YFGKLESKLSIIRNLNDQVLFIDQGNRPLFEDMTDSDARDNAPRTIFIISMYADSQPRGMAVTISVKCEKISTLSAENKIISFKEMNPPDNIKDTKSDIIFFQRSVPAHDNKMQFESSSYEGYFLAAEKERDLFKLILKKEDELGDRSIMFTVQNED",3.98 nM

# Molecular target: T2, human IL-18BP
# Assay: IL-18BP binding AlphaLISA assay (Example 4 / 17B)
# Conditions: IL-18 binding protein AlphaLISA
# Experimental: A human IL-18BP AlphaLISA Assay Kit is used to determine the binding affinity of each immunocytokine and IL-18 variant for IL-18BP, which detected the presence of free form IL-18BP.
# Sixteen three-fold serial dilutions of IL-18 analytes are prepared in aMEM medium supplemented with 20% FCS, Glutamax, and 25 μM β-mercaptoethanol in the presence of 5 ng/mL of His-tagged human IL-18BP. Final IL-18 analytes concentration range from 2778 nM to 0.2 pM.
# After 1 hr incubation at room temperature, free IL-18BP levels are measured using a […]. In a 384 well OPTIplate, 5 μL of 5× Anti-IL-18BP acceptor beads are added to 7.5 μL of an IL-18/IL-18BP mix. After 30 min incubation at room temperature with shaking, 5 μL of biotinylated Anti-IL-18BP antibodies are added to each well. The plate is incubated further for 1 hr at room temperature. Under subdued light, 12.5 μL of 2× streptavidin (SA) donor beads are pipetted into each well, and the wells are incubated with shaking for an additional 30 min at room temperature. The AlphaLisa signal is then measured on an Enspire plate reader with 680 and 615 nm as excitation and emission wavelengths, respectively. The dissociation constant (KD) is calculated based on a variable slope, four parameter analysis using GraphPad PRISM software.
# 17B—IL-18 BP AlphaLISA assay—An IL-18 binding protein AlphaLISA experiment substantially as described in Example 4 was performed on IL-18 polypeptide which can be incorporated into immunocytokine compositions as provided herein to assess ability to bind to IL-18BP.
row,Kd,Molecule
1,> 2800 nM,"C177: IL-18 polypeptide: E6K, V11I, C38A, I49R, K53A, T63A, C76A, C127A (protein) YFGKLKSKLSIIRNLNDQVLFIDQGNRPLFEDMTDSDARDNAPRTIFIRSMYADSQPRGMAVAISVKCEKISTLSAENKIISFKEMNPPDNIKDTKSDIIFFQRSVPGHDNKMQFESSSYEGYFLAAEKERDLFKLILKKEDELGDRSIMFTVQNED"
2,> 2800 nM,"C179: IL-18 polypeptide: E6K, K8E, V11I, C38A, K53A, T63A, C76A, Q103R, C127A (protein) YFGKLKSELSIIRNLNDQVLFIDQGNRPLFEDMTDSDARDNAPRTIFIISMYADSQPRGMAVAISVKCEKISTLSAENKIISFKEMNPPDNIKDTKSDIIFFRRSVPGHDNKMQFESSSYEGYFLAAEKERDLFKLILKKEDELGDRSIMFTVQNED"
3,> 2800 nM,"C181: IL-18 polypeptide: E6K, V11I, C38A, K53A, T63A, C76A, C127A, V153E (protein) YFGKLKSKLSIIRNLNDQVLFIDQGNRPLFEDMTDSDARDNAPRTIFIISMYADSQPRGMAVAISVKCEKISTLSAENKIISFKEMNPPDNIKDTKSDIIFFQRSVPGHDNKMQFESSSYEGYFLAAEKERDLFKLILKKEDELGDRSIMFTEQNED"
4,> 2800 nM,"C178: IL-18 polypeptide: E6K, V11I, C38A, K53A, T63A, C76A, Q103R, C127A (protein) YFGKLKSKLSIIRNLNDQVLFIDQGNRPLFEDMTDSDARDNAPRTIFIISMYADSQPRGMAVAISVKCEKISTLSAENKIISFKEMNPPDNIKDTKSDIIFFRRSVPGHDNKMQFESSSYEGYFLAAEKERDLFKLILKKEDELGDRSIMFTVQNED"
5,> 2800 nM,"C182: IL-18 polypeptide: E6K, V11I, C38A, K53A, T63A, C76A, C127A, V153Y (protein) YFGKLKSKLSIIRNLNDQVLFIDQGNRPLFEDMTDSDARDNAPRTIFIISMYADSQPRGMAVAISVKCEKISTLSAENKIISFKEMNPPDNIKDTKSDIIFFQRSVPGHDNKMQFESSSYEGYFLAAEKERDLFKLILKKEDELGDRSIMFTYQNED"
